From patent US20240287172A1 (SCIRHOM, published 2024)
Where a chain is given by its changes, count along the chain named.

T1: hiR2-FL-T544P-T7 (human, UniProt Q6PJF5 1-856)
T1 sequence: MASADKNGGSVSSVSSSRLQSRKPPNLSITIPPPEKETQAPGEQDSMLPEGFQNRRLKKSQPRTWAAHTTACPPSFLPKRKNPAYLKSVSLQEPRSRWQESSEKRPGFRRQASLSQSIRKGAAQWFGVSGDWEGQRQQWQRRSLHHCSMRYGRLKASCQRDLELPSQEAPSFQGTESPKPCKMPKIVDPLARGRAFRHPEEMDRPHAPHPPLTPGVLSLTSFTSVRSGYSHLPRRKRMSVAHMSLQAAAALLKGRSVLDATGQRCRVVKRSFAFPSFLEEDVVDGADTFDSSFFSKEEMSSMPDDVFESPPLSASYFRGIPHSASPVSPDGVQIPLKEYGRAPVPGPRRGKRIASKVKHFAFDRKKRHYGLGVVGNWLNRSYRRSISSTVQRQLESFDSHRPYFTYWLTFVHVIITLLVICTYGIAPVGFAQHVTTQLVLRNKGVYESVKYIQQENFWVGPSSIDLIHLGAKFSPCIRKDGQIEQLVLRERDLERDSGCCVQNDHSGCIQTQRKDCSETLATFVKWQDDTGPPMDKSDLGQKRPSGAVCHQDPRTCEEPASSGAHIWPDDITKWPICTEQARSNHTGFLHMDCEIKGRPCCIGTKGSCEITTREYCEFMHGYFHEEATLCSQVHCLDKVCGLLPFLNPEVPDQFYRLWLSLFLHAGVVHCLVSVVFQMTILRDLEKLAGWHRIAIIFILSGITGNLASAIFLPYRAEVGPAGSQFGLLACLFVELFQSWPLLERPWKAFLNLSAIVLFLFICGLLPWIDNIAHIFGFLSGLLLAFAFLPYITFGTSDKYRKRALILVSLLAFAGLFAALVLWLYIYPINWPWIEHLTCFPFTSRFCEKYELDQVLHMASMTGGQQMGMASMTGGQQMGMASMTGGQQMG

T2: hiR2-FL-G546A-T7 (human, UniProt Q6PJF5 1-856)
T2 sequence: T1 sequence with P544T, G546A

B1: antibody 48 (antibody, V domains shown)
VH: QVQLQQSGTELVRPGTSVKVSCKASGYAFTNYLIEWVKQRPGQGLEWIGVINPGSGFTKYNEKFKGKATLTADKSSSTVYMHLSSLTSEDSAVYFCARGLYRAMDYWGQGTSVTVSS
VL: DIQMTQSPASQSASLGESVTITCLASQTIATWLAWYQQKPGKSPQLLIYGATTLADGVPSRFSGGGSGTKFSFKISSLQAEDFVSYYCQQLYSTPYTFGGGTKLEIK
notes: mouse IgG, kappa light chain; also called clone #48; purified antibody 48
B2: antibody 50 (antibody, V domains shown)
VH: B1 VH with T9A, T16A, T30S, V79A, H82Q
VL: B1 VL with A30G, G50A, T52A, T53S, S85N, L91I
notes: mouse IgG, kappa light chain; also called clone #50; purified antibody 50
B3: antibody 3 (antibody, V domains shown)
VH: QVTLKESGPGILQPSQTLSLTCSFSGFSLTTFAMGIGWVRQPSGKGLEWLAHIWWDGEKYNNPVLKSRLTISKDTSKNQVFLRIANVDTPDTATYYCARISSIYYIIDNWGQGTSVTVSS
VL: DIVLTQSPATLSVTPGHSVSLSCRASQSISNNLHWYQKKSHESPRLLIKYVSQSISGIPSRFSGSGSGTDFTLSINSVETEDFGMYFCQQSYNWPLTFGAGTKLELK
notes: mouse IgG, kappa light chain; also called clone #3; purified antibody 3
B4: antibody 5 (antibody, V domains shown)
VH: QVTLKESGPGILQPSQTLSLTCSFSGFSLSTFGMGVGWIRQPSGKGLEWLAHIWWDDEKYYNSALKSRLTISKATSKNQAFLKIANVDTADTATYYCARISNYGSNYWYFNVWGTGTTVTVSS
VL: QVVLTQSPALMSASPGEKVTMTCSAGSSVSCMYWYQQKPGSSPRVLIYDTSNLASGVPARFTGSGSGTSYSLTISRMEAEDAASYYCQQWNSYPLTFGAGTKLELK
notes: mouse IgG, kappa light chain; also called clone #5; purified antibody 5
B5: antibody 44 (antibody, V domains shown)
VH: B4 VH with G44E, E58D, S63P, A74D, A80I, A85T, D91E, A98S, S101G, N111D
VL: QIVLTQSPAVMSASPGEKVTMTCTASSSVYYMYWYQQTPGSSPRLLIYDTSNLASGVPVRFSGSGSGTSYSLTISRMEAEDAATYYCQQWNTYPLTFGAGTKLELK
notes: mouse IgG, kappa light chain; also called clone #44; purified antibody 44
B6: antibody 43 (antibody, V domains shown)
VH: B4 VH with T3A, P42S, H52N, E58D, S63P, A74D, T75A, S101G, N111D
VL: QIVLTQSPAIMSASPGERVTMTCSANSRISYMYWYQQKPGSSPRLLIYDTSNLASGVPVRFSGSGSGTSYSLTISRMEAEDAATYNCQQWSSYPLTFGAGTKLELK
notes: mouse IgG, kappa light chain; also called clone #43; purified antibody 43
B7: antibody 42 (antibody, V domains shown)
VH: B4 VH with F24L, M34R, S63P, A74D, A80V, K83R, S101Q, N111D
VL: B6 VL with Q1L, R18K, S24G, N26T, Y33F, L45V, M77V, A82V, N86Y, S91N
notes: mouse IgG, kappa light chain; also called clone #42; purified antibody 42
B8: antibody 22 (antibody, V domains shown)
VH: B4 VH with A80V
VL: B4 VL with C31Y, S84T
notes: mouse IgG, kappa light chain; also called clone #22; purified antibody 22
B9: antibody 34 (antibody, V domains shown)
VH: QVTLKESGPGILQPSQTLSLTCSFSGFSLSTFSLGVGWIRQSSGKGLEWLAHIWWDDEKYYNPALKSRLTISKDTSKNQVFLKIANVDAADTATYYCARAYYSKSYYALDYWGQGTSVTVSS
VL: DIQMTQSPSSLSASLGERVSLTCRASQEISGYLSWLQQKPDGTIKRLIYAASTLDSGVPKRFSGSRSGSDYSLAISSLESEDFADYYCLQYANFPFTFGSGTKLEIK
notes: mouse IgG, kappa light chain; also called clone #34; purified antibody 34

Experiments:
hiR2-FL-T544P-T7 = target: T1, hiR2-FL-T544P-T7; assay: FACS, MEF-DKO cells, 3 µg/ml
Description: (§1) In brief, immortalized MEF-DKO-hiR2-FL-WT-T7 cells, MEF-DKO-miR2-FL-WT-T7 cells and MEF-DKO-hiR2-FL-R441K-T7, MEF-DKO-hiR2-FL-K443R-T7, MEF-DKO-hiR2-FL-V459I-T7, MEF-DKO-hiR2-FL-G481Q-T7, MEF-DKO-hiR2-FL-L488R-T7, MEF-DKO-hiR2-FL-L493I-T7, MEF-DKO-hiR2-FL-D496T-T7, MEF-DKO-hiR2-FL-H505R-T7, MEF-DKO-hiR2-FL-Q512L-T7, MEF-DKO-hiR2-FL- R513K-T7, MEF-DKO-hiR2-FL-D528N-T7, MEF-DKO-hiR2-FL-P533-T7, MEF-DKO-hiR2-FL-M534S-T7, MEF-DKO-hiR2-FL-G540S-T7, MEF-DKO-hiR2-FL-R543Q-T7, MEF-DKO-hiR2-FL-T544P-T7, MEF-DKO-hiR2-FL-G546A-T7, MEF-DKO-hiR2-FL-A547V-T7, MEF-DKO-hiR2-FL-R582Q-T7, MEF-DKO-hiR2-FL-F588L-T7, MEF-DKO-hiR2-FL-M591I-T7, MEF-DKO-hiR2-FL-E594K-T7, MEF-DKO-hiR2-FL-E626D-T7, MEF-DKO-hiR2-FL-L657I-T7, and MEF-DKO-hiR2-FL-H835Y-T7 cells were harvested with 10 mM EDTA in PBS, washed and resuspended in FACS buffer (PBS, 3% FBS, 0.05% sodium azide), and seeded in Nunc U-bottom 96-well plates (Thermo Fisher Scientific, USA) at approximately 3×10⁵ cells per well.
(§2) To pellet cells and remove supernatants, the plates were centrifuged at 1,500 rpm and 4° C. for 3 minutes. For primary staining, cells were resuspended in 100 μl per well of either FACS buffer alone (controls) or the purified antibodies 3, 5, 16, 22, 34, 42, 43, 44, 48, and 50 of the invention at 3 μg/ml FACS buffer and incubated on ice for 1 hour. Afterwards, plates were centrifuged at 1,500 rpm and 4° C. for 3 minutes and washed twice with 200 μl per well of FACS buffer. For secondary staining, cells were spun down and resuspended in 100 μl per well of PE-conjugated goat anti-mouse IgG F(ab′)2 detection fragment (Dianova, Germany) diluted 1:100 in FACS buffer. Protected from light, the cell suspensions were incubated on ice for 1 hour. Plates were then centrifuged at 1,500 rpm and 4° C. for 3 minutes and washed three times with 200 μl per well of FACS buffer. Finally, cells were resuspended in 150 μl per well of FACS buffer and analyzed using a BD Accuri™ C6 Plus flow cytometer (Becton Dickinson, Germany).

hiR2-FL-G546A-T7 = target: T2, hiR2-FL-G546A-T7; assay: FACS, MEF-DKO cells, 3 µg/ml
Description: as §1, §2

Row | Binder | loss of binding vs wild type (hiR2-FL-T544P-T7) [%] | loss of binding vs wild type (hiR2-FL-G546A-T7) [%]
1 | B1 | ≥ 30 | –
2 | B2 | ≥ 30 | ≥ 30
3 | B3 | ≥ 60 | ≥ 30
4 | B4 | ≥ 60 | ≥ 95
5 | B5 | ≥ 30 | ≥ 60
6 | B6 | ≥ 60 | ≥ 60
7 | B7 | ≥ 60 | ≥ 60
8 | B8 | ≥ 30 | ≥ 30
9 | B9 | ≥ 60 | ≥ 60
